In patent publication US20240368642A1, “COMPOSITIONS AND METHODS FOR PRODUCTION OF VALUE-ADDED CHEMICALS” (Solugen, Inc., priority 2021, published 2024):
In brackets after ≈: the same amount, converted by molar mass.

Key:
[1] = Specific activity of pyranose oxidase (POX) enzymes; format: biochemical; conditions: Table 4; unit = 1 umol of substrate consumed min^−1
Description: POX is a flavin-dependent enzyme found in lignocellulose-degrading fungi that oxidizes glucose to 2-ketoglucose concomitantly with hydrogen peroxide formation. Recombinant Trametes hirsuita POX is currently used in the food industry for baking, providing some evidence that the enzyme can be produced at low cost. A unit is defined as 1 umol of substrate consumed min^−1. Based on an in-house empirical evaluation, the Irpex lacteus, Trametes multicolor, and Phanerochaete chrysosporium POXs have sufficient starting activity. This is presented graphically in FIG. 32 and Table 4.

[2] = Table 4; previously characterized POX enzymes; cited from earlier work
[3] = system: General Wild Strain Bacteria; assay: Microtiter MIC study, general wild strain bacteria; format: cell-based, Pseudomonas aeruginosa and Enterobacter aggolomerans; conditions: 24 hours of incubation; concentration based on initial GDA concentration
Procedure: (§1) All three different heat incubated GDA samples were tested as antimicrobial agents with several different industrially relevant bacteria. The General Aerobic Bacteria isolated and used for this testing were identified as Pseudomonas aeruginosa and Enterobacter aggolomerans. Wild strain Sulfate Reducing Bacteria and Acid Producing Bacteria isolated from the produced fluids was also used. They were placed in a microtiter plate, where a high throughput test can be performed to determine MIC (minimum inhibitor concentration). Samples were tested at the following doses (1000, 500, 250, 125, 62.5, 31.2, 15.6, 7.8, 3.9, and 1.95ppm) and concentration was calculated based on the initial GDA concentration (15 w/v %).
(§2) The antimicrobial testing results shown in FIG. 49 summarizes the MIC of each sample for different bacteria.

[4] = system: APB (Acid Producing Bacteria); assay: Microtiter MIC study, acid producing bacteria; format: cell-based, Acid Producing Bacteria isolated from the produced fluids; conditions: 24 hours of incubation; concentration based on initial GDA concentration
Procedure: as §1, §2

[5] = Glucarate dehydratase reaction with gluconate or glucuronate as substrate; format: biochemical; conditions: 0.01% w/v GlucD, 10 mM substrate, pH 7.5, 24 hours
Procedure: (§3) A 100 μL volume was prepared containing 0.01% w/v Escherichia coli glucarate dehydratase (GlucD), 10 mM substrate (glucarate, gluconate, or glucuronate), 50 mM potassium phosphate, pH 7.5, 5 mM MgSO4, and 100 mM NaCl. The reaction was allowed to proceed for 24 hours and consumption of glucaric acid was monitored via LCMS at 0, 5mins, 20 mins, 1 hr, 2 hrs, and 24 hours. Full conversion of glucarate was observed within 20 minutes. […] The reaction is schematized in FIG. 36 and the results are graphed in Figure

[6] = Glucarate dehydratase reaction on glucarate monitored via LCMS; format: biochemical; conditions: pH 7.5
Procedure: as §3
To determine optimal enzyme loading, a 100 μL volume was prepared containing 0.001, 0.002, 0.005, or 0.01% w/v glucarate dehydratase (GlucD), 10% w/v glucarate, 50 mM potassium phosphate, pH 7.5, 5 mM MgSO4, and 100 mM NaCl. The reaction was allowed to proceed for 74 hours and formation of 4-deoxy-5-keoglucarate and consumption of glucarate was monitored via reverse phase LCMS. […] The reaction is schematized in FIG. 36 and the results are graphed in FIG. 40.

[7] = system: all three bacteria tested; assay: Antimicrobial testing, statement for all three bacteria tested; format: cell-based
Procedure: as §1, §2

Molecule: Trametes multicolor: POX enzyme of Trametes multicolor
- Specific Activity (in-house evaluation) [1]: 6.8 (in-house U mg^−1

Molecule: Irpex lacteus: POX enzyme of Irpex lacteus
- Specific Activity (in-house evaluation) [1]: 6.0 (in-house U mg^−1
- Specific Activity (previously characterized) [2]: evaluation), 86 U mg^−1

Molecule: O=CCCCC=O [Glutaraldehyde - 50%, Glutaraldehyde]
- MIC [3]: 1000 µg/mL (≈ 9.99 mM)
- MIC [4]: 500 µg/mL (≈ 4.99 mM)

Molecule: GlucD: Escherichia coli glucarate dehydratase
- reaction with gluconic or glucuronic acid as substrate [5]: No reaction was observed
- time to full conversion of glucarate ([6]; 0.005% enzyme, 10% w/v glucarate): ≤ 24 h
- time to full conversion of glucarate ([6]; 0.01% w/v GlucD, 10 mM glucarate): ≤ 0.333 h

Molecule: Oc1ccc(O)c(O)c1O (single isomer, unassigned) [1,2,3,4-tetrahydroxybenzene]
- antimicrobial activity (in words) [7]: good antimicrobial activity

B1: Lyophyllum shimeji: POX enzyme of Lyophyllum shimeji (protein, UniProt Q75ZP8 1-618, looked up)
Pyranose 2-oxidase: MSLSTEQMLRDYPRSMQINGQIPKNAIHETYGNDGVDVFIAGSGPIGATYAKLCVEAGLRVVMVEIGAADSFYAVNAEEGTAVPYVPGYHKKNEIEFQKDIDRFVNVIKGALQQVSVPVRNQNVPTLDPGAWSAPPGSSAISNGKNPHQREFENLSAEAVTRGVGGMSTHWTCSTPRIHPPMESLPGIGRPKLSNDPAEDDKEWNELYSEAERLIGTSTKEFDESIRHTLVLRSLQDAYKDRQRIFRPLPLACHRLKNAPEYVEWHSAENLFHSIYNDDKQKKLFTLLTNHRCTRLALTGGYEKKIGAAEVRNLLATRNPSSQLDSYIMAKVYVLASGAIGNPQILYNSGFSGLQVTPRNDSLIPNLGRYITEQPMAFCQIVLRQEFVDSVRDDPYGLPWWKEAVAQHIAKNPTDALPIPFRDPEPQVTTPFTEEHPWHTQIHRDAFSYGAVGPEVDSRVIVDLRWFGATDPEANNLLVFQNDVQDGYSMPQPTFRYRPSTASNVRARKMMADMCEVASNLGGYLPTSPPQFMDPGLALHLAGTTRIGFDKATTVADNNSLVWDFANLYVAGNGTIRTGFGENPTLTSMCHAIKSARSIINTLKGGTDGKNTGEHRNL
- Specific Activity (previously characterized) [2]: 1.92 U mg^−1
